Assay: soluble on expression in E. coli; label from the status in PepcDB or PDB records

Soluble on expression in E. coli, not soluble:
MGSDKIHHHHHHMYRSRNRPKRGGENEVKGPNSALTQFLREEGISAENIKQKWYQRQSKKQEDATDEKKGKAEDDSFTAEISRVVEDEEIDEIGTGSGTETERAQVSYDARMKLVPADSDEEEYETSHISDTPVSLSSANDRESLTKKRQNTAKIIQNRRRKRKRAADLLDRRVNKVSSLQSLCITKISENISKWQKEADESSKLVFNKLRDVLGGVSTANLNNLAKALSKNRALNDHTLQLFLKTDLKRLTFSDCSKISFDGYKTLAIFSPHLTELSLQMCGQLNHESLLYIAEKLPNLKSLNLDGPFLINEDTWEKFFVIMKGRLEEFHISNTHRFTDKSLSNLLINCGSTLVSLGLSRLDSISNYALLPQYLVNDEFHSLCIEYPFNEEDVNDEIIINLLGQIGRTLRKLVLNGCIDLTDSMIINGLTAFIPEKCPLEVLSLEESDQITTDSLSYFFSKVELNNLIECSFRRCLQLGDMAIIELLLNGARDSLRSLNLNSLKELTKEAFVALACPNLTYLDLGFVRCVDDSVIQMLGEQNPNLTVIDVFGDNLVTEKATMRPGLTLIGRQSDSI
MGSDKIHHHHHHMYRTAIEELHRWKAKRNKKPLIIRGARQVGKTWLMKEFGRVAFAKTVYISLDNNRRMKELFSADLDVERIVTGLELYSGQKIDPANTLLIFDEVQEVPTALTSLKYFNENAPQYQIISAGSLLGVALHQGTSFPVGKVEFLDLYPLSFTEFLNAMDKGRYVELLQKGDFDMIATFKQTYVDMLKYYYYVGGMPEVVQSFSETKDFGEVREIQQRILDAYEQDFSKHAPHDVVPRIRMLWNSIPAQLTKENKKFIYGLIKEGARAKEYEQSMLWLTDCGLVHKVHRVNAPSLPLKAYEDLKAFKLFLVDIGLLSCMVRLNQGTLLDGNELFKEFKGALTEQYVLQQLRTLKELEAYYWTNDRGSAEIDFVVDDGHKVIPIEVKAETNLKAKSLKMYQEKFRPELSIRASMADYRRENRLLNLPLYMVEMMGLLLKEAE
MGSDKIHHHHHHMYTLNILKDSTAVMYEKMTFPAFQYVLQEINSKESLIAIAASYQEEPVGLVLAEIRTYNQSAEVLSLFVEPSHRCAGIGTNLLNRLETELTYRRCKKVELVYMTGKSTTPALENLLHKCGWTSPQPRMLVCKGEMEKGIQAPWLKQYSQLPAAYTIFPWREITTQERQAIERQQATQPWIPEDLIPFKYDKQIEPLNSLGLRYQGQVVGWLISHRIFPDTIRYTCAFCRPDIQKKGRMITLFYEAAKLQLNAKIPHFIWTTPMNHQSMVAFVKYRCLPYLTSIQETRIISKLLLG
MGSDKIHHHHHHMYVLHICHSYYPPFLDCARQYAALFKDSPYKVVTVYLTGKPDPEVERGSASDEVVFLGYSSKQVKGLKLGAIAKIRQLVKSRNFAFCIAHRAKPTYVALLATGLPVVSVHHNYNDYGRFTRRILVNFYRKRILMLCVSNSVRDEMRQHLKHWPAEQIQTLYNRIDVDAVRQSLLPRQEARRLLELEDDTYVIANVGRLHRDKDQATLLRGFAQALPELPANTLLLILGKGPLEQELKALASELGIAGNVRFAGQVPEARRYFRAFDLFVLTSDHEPFGMVLLEAMAAELPIICSDSGGGAEVVNGYGDLFSLGNPHHLSSLLIARSRLPQAANSSADILHEKFSDAAARKHFFMLTFIKDLLFI
MGSDKIHHHHHHMYYLSFSISSNCGLSAAAEHLQNKIVTLNVINSTDFNTVIAFTLARDIDAMRNDFAKDFKTVYIARGKKAAFINGTKISHGIVPAMISEQIIPLYPIFAENGSEWFNAIVLEKEHIDNFVALIEKKNNIETLDYERIRNGDSMFSIIKNANRGIFTLELTETERRIVNSSLRQGFFSWPRSYDLTSISREFGLTKPTILYHIRNAERKVMEALFGS
MGSDKIHHHHHHQGPQCNHAQLPFQQMTPVPYDSTPYSPQDTMPEQCSNPEVEAYIADWEAGKIDFTTIKANDSIAADQRFCKTLDDDGNISEVKDCDRTKSPVGYIWKELSDSPVVIGITDGGKSDHAPHFHGQPECYYVVNGEGQTLADNQFKKLGTGQYFYIPGATIHNTPIMSEKGLGVIYWYPNNAHFDGFKYYWRKDVKNLRVAEEAFDRVDAIRKRDLNLGPYGTNEAFFKK
MGSDKIHHHHHHQTPSPLGEWQYSAGVPLDKLFNPNPQTWQISVGAAATLQPRYDGSNQYRPMAGPTFDARYRDLWFVSTGEGIGVNVLRGPNWRATLSAGYDLGRREADDRGHLTGIGNINPAAVIKLSADYVISHAFPLVLRADVRRSVGGANGWVADLAAYMPLPGSSETFYWFAGPTVTFADSRYMNSWFGVNDAQAARSGHPRYAPSAGVKSFGGGMTLVWFVTKHWFVTADGAIEQLVGSAARSPLTQRSTNAVVDVSINYQF
MGSDKIHHHHHHQVSGDTVKIGFITDLSGLYADIDGQGGVEAIKMAIEDAGGKVLGKPIELVTADHQNKADIAASKAREWMDQQGLDVLIGGTNSGTALAMNKVAAEKKRVYINNGAGTARLTNEECSPYTVHYAYDTVALAKGTGSAVVKQGGKSWFFLTADYAFGHSLESDTAAVVKANGGTVLGSVRHPLSASDFSSFLLQAQASKAQILGLANAGGDTINSIKAAKEFGITKTMKIAGLLMFINDIHSLGLKNTEGLLMTDSWYWDMNDDTRKFANRYFSKMKKMPSSLQAADYSAVSTYLKAVAAAKTDDPDKVMAELKKTKINDFYTKGYIRQDGRGIHDMYLMQVKSPAESKKPWDYLKIVATIPGDQAFTTVAESKCSMMKK
MGSDKIHHHHHHTPLPPVKQPHPATSQQHQEPVRGVWLATVSRLDWPPVTSVNTNSPAIRITQQQEALKGKLDKLKSLGINTVFFQIKPDGTALWPSKILPWSDMMTGHIGEDPGYDPLQFMLDEAHKRGMKVHAWFNPYRVSVNTKSGTVAELNRTLSQNPASVFVLHRDWIRTAGDRFVLDPGIPEARNWITSIVAEVVARYAIDGVQFDDYFYAESPGSVLNDGETFKKYGQGFGSKADWRRHNTQQLIEQVSRTIKQLKPEVEFGVSPAGVWRNRSHDAAGSDTRGAAAYDEAYADTRLWVQQGLLDYIAPQLYWPFARDAARYDVLAKWWADVVKPTSTRLYIGVALYKVGEPSKNEPDWMISGGVPELKKQLDLNESTPHIDGTILFRENYLNQPQTQEAVNYLRNRWNPI
MGSDKIHHHHHHVATYNERLFDGKSFRSKLHYARYLWVNSWIKRWELPSYSMLELGCYDGKTIDFLSNKPATYAGYDANWEGGLDIAKTKWSMHPDYSFHTCEKPADFSADDSMYEVSVCLETLEHIPAADLEAYIVQLSKKTKQYCLVSVPNEKGPVLFFKHIIKSITQEKAQTEAYTLKEFLYGSIGRLDKVARRDCGHKGFDYDALAVLLKKYFTILKTEAIPYPAIPHALGFNVGFILKKN
MGSDKIHHHHHHVDDNALPVEETFKDIDLANNLKDCGKPLLLSDIVKDVEYVKLETQDNILVGDIKQLKRTEKFVFIYSRNQRHVMMFDTSGKFIRKIGHVGQGPGEIANIHCFTVSDSLVFIYPFSRNGSLTVYDMRDNSFVKEFSLKWPVFFSWTIDVMGDCLVYYPGTVYLPDNSKTFISACVANGKGETLMEQIPYLSSGDKEIVQLSSDPSWLYRGRSNVYSFINDTIYGITCDSIFPRYHLSLGKYKLPSGRYDPTHDYGWGDFVLMQSVYETKEFLFLELGTLL
MGSDKIHHHHHHVDKLLYVAMSGAKQNMNSLAVRANNLANANTDGFKSDLEQARSMQAFGEGLPTRVFSMTENPSANFAAGPIKTTGRDLDIAVKGDGWIAVQAVDGGEAYTRSGSLSFDTSGLLRNDRGNPVMGDAGPIVLPLPIEKVEIAQDGTISVRPLGSTAEVIEEVGRIKLVNPGNQNLMRGEDGLFRQLSGVNAPADPNVAVESGAIEGSNVNAVDEMVSLIDLQRQFEMQVKMMKTAEEMDQASSSLMRIS
MGSDKIHHHHHHVDTGNRPSILRMPAQEDFVRFKPGFGTRFLLTVDTEEEFDWSKPLDRTSHGLHHVPRLAKFQQFCEGVGVVPVYLVDFPVASDPRAADILRDAVHAGKAEIGVQLHPWVSPPHDEDVNVHNSFAGNLAPELERAKFRKLRDTIEQAFGVGPLIYRAGRYGVGPATASILSDCAIAIDTSVRSRFDYSSAGGPNFREYPLRPWWIDKRNGLMEMPLTTVFSGLLRQQGQTIYPALWRVPRLRGALARIGMLERIPLTPEGVTLDEAIKGIDMALDDGLEMLVFSFHSPSLCPGHTPYVRDESDLDLFYAWWRGVLTYMQQRNVKPTCVREIMEAAEI
MGSDKIHHHHHHVHLTYENTNEEIIAVKRKPRHQPPHLHNAMEIVCVTKGTLELGVGQELYHMETGDIGVVFPDVIHHYQVFSSEVNEAVFINAPQMIFGRFENVLRNNAPQYPVVKSDVIPDEVYRAVESIIDTGQNDIWVVQAYLQIILARCIPMMKLVEKSKIGSDDIIYRTVSYISANFNKSISLDGMAHDLGVSKFSLSRLFSKTFHSSFNQYVNEARLGYACQRIETTDDTLTEISMDSGFGSLRTFNRVFKEKYRLTPSEYRNKLQI
MGSDKIHHHHHHVKFFVIGDVTVDHLYHLDRLPAPGEEVAPTRATMKPGGAGGTISVTLARLGHSVTLAARVGDDPFAEYALASVRESGVLQAAIQIDPEHLTSTITVMQTPDGQRAMISDGAANRQLDPAKLKKKDIEGADALIVSAYSLTEGPQREYTLKAIETAKKAKKPVPVFIDLGTGAVNKVGTDLIENVIGADYLTLNQHELLALTDTTSISAALAQLGDAGARRVIVKVGRMGSIVWTPTETELVDPIKPEGRVVDSTGAGDTFTAAFAHAVLTGHSLPQAARIGNAAGALAATRVGAQARPITLADLEAALAR
MGSDKIHHHHHHVLIKSIKLTNILSFGEAAETIELRPLNVVIGPNGSGKSNLIAAIELFRALPKDAPAFFRREGGIHDWLWKGGEIPPVATIESVFDEKGPLSGLRYALRFTVVGQHFEIIEERIEEEAAEGAQTPPPYHFKDGRGALRALLANEGEIKAWSFVIPSEIDPTQSILAQRKDPHQYPELTSLGAVLPTMRCYREWTMGPQSPPRQDQKTDLRNDYLDPYGAGNLALVLQRLGNKPALKKRFLEALRLLYEGIDDYGVTIEGGTSQIFFHEGGRFTIPASRLSDGTLRYLCLLAILLDPAPPPLLCIEEPELGLHPDILPTLADLLKEASERTQVIVTTHSDGLVDAMTDRPEAVLIAEKNENGTTLTRLDGETLKPWLAKYRLGELWTRGGIGGTRW
MGSDKIHHHHHHVNYPKVYTSEQACPINLVGETGQAVQISIHAPSQYICANCERILPDWKRQSFLRVVIVLQQSRYQLVKKTTEVESEKERLREKFMRFGCDLAFNLRDRGYLTDLIDPRTGYPLLSHPGAIPHDDTAVVKALLNYPVIKNQCRVLVHPEWGAAVYPSILISEAPPILIEWVTKGIAAMHGWKEISH
MGSDKIHHHHHHVPNEKLSNRDRLLAVRDIFEQYSDEEQTLTLEELSTELSKRGLIEKLSRKSLKEDIAALAKSGFDIHAEETKNGLAIPYHLVSRPFEYHHLRLLVDAIASAKFISESETEVLVRNIHTLTSKRLAKTLTPVIHTVKKPKGVIPFSIDTIQKAIIEQDIISFQYQGKFNERTRKFELRRDGDYYLVTPAHLIVDNGNYYLIGRDERVEEIRTYRVDRIVNCSVFEPAQTPVEVEATYLSSMFNMYGGEQEQLTLKFHESVMPTVVDRFGTDIRCRRLEGDWFEVKVGALFSQGFMMWLIQFAEQAEILEPALCREAFKNKVLELAKVYQAGVPVSPQMNESV

Source: the DeepSol protein solubility set
